Measured values taken from IntAct's records for PubMed 25737013.

B1: Splicing factor 3B subunit 2 (Homo sapiens), Q13435 (parent)
chain: MATEHPEPPKAELQLPPPPPPGHYGAWAAQELQAKLAEIGAPIQGNREELVERLQSYTRQTGIVLNRPVLRGEDGDKAAPPPMSAQLPGIPMPPPPLGLPPLQPPPPPPPPPPGLGLGFPMAHPPNLGPPPPLRVGEPVALSEEERLKLAQQQAALLMQQEERAKQQGDHSLKEHELLEQQKRAAVLLEQERQQEIAKMGTPVPRPPQDMGQIGVRTPLGPRVAAPVGPVGPTPTVLPMGAPVPRPRGPPPPPGDENREMDDPSVGPKIPQALEKILQLKESRQEEMNSQQEEEEMETDARSSLGQSASETEEDTVSVSKKEKNRKRRNRKKKKKPQRVRGVSSESSGDREKDSTRSRGSDSPAADVEIEYVTEEPEIYEPNFIFFKRIFEAFKLTDDVKKEKEKEPEKLDKLENSAAPKKKGFEEEHKDSDDDSSDDEQEKKPEAPKLSKKKLRRMNRFTVAELKQLVARPDVVEMHDVTAQDPKLLVHLKATRNSVPVPRHWCFKRKYLQGKRGIEKPPFELPDFIKRTGIQEMREALQEKEEQKTMKSKMREKVRPKMGKIDIDYQKLHDAFFKWQTKPKLTIHGDLYYEGKEFETRLKEKKPGDLSDELRISLGMPVGPNAHKVPPPWLIAMQRYGPPPSYPNLKIPGLNSPIPESCSFGYHAGGWGKPPVDETGKPLYGDVFGTNAAEFQTKTEEEEIDRTPWGELEPSDEESSEEEEEEESDEDKPDETGFITPADSGLITPGGFSSVPAGMETPELIELRKKKIEEAMDGSETPQLFTVLPEKRTATVGGAMMGSTHIYDMSTVMSRKGPAPELQGVEVALAPEELELDPMAMTQKYEEHVREQQAQVEKEDFSDMVAEHAAKQKQKKRKAQPQDSRGGSKKYKEFKF
partner: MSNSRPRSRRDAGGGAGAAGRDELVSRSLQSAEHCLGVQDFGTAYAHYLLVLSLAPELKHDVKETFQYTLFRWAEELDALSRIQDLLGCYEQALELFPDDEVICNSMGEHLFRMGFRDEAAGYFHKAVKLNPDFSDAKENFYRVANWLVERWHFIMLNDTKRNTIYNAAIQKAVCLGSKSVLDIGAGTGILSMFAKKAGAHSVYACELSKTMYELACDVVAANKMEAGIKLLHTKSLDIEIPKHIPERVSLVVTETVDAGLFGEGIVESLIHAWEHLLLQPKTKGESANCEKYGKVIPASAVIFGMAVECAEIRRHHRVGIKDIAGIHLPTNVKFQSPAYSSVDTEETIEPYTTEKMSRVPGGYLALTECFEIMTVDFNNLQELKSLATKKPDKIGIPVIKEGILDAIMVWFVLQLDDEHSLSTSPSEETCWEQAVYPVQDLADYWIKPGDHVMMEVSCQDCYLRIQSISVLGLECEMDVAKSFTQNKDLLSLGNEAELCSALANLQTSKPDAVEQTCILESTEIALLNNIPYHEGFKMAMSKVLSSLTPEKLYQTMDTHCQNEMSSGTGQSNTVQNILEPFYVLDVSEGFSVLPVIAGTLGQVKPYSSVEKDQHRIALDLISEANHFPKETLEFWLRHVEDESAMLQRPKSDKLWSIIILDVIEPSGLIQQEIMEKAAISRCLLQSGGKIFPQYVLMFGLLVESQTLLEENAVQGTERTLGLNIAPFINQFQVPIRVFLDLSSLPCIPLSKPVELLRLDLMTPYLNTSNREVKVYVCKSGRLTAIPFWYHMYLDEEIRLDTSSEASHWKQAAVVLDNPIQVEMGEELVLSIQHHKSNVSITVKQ
B2: Protein arginine N-methyltransferase 9 (Homo sapiens), Q6P2P2 (parent)
chain: B1 partner
B3: Splicing factor 3B subunit 2 (Homo sapiens), Q13435 (parent)
chain: B1 chain

Variants of: B1
Details: with anm9_human PRMT9, Q6P2P2

| Variant | effect of a mutation on the interaction |
| --- | --- |
| R455K;R456K;R459K | with no effect |
| R495K | with no effect |
| R471K | with no effect |
| R502K | with no effect |

The remaining lines, values ahead:

| effect of a mutation on the interaction | Variant |
| --- | --- |
| with no effect | R530K |
| with no effect | R515K |
| with no effect | R537K |

Variants of: B1
Details: with anm9_human PRMT9, Q6P2P2
Remark: another data set of the same source

| effect of a mutation on the interaction | Variant |
| --- | --- |
| with no effect | R508K |

Variants of: B2
Details: with sf3b2_human SF3B2, Q13435

| effect of a mutation on the interaction | Variant |
| --- | --- |
| disrupting interaction strength | L182A;D183A;I184A;G185A |

Variants of: B3
Details: with smn_human SMN1, Q16637
Sequence of smn_human SMN1, Q16637 (Q16637 whole entry): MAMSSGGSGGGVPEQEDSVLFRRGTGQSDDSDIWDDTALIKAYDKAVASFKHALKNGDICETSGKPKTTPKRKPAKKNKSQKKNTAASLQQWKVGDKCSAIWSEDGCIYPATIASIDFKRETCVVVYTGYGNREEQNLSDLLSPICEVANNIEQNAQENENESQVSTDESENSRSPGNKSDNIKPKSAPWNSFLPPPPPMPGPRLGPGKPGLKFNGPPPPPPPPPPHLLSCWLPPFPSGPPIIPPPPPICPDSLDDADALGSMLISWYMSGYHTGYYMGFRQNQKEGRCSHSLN

| effect of a mutation on the interaction | Variant |
| --- | --- |
| disrupting interaction strength | R508K |
